According to article doi:10.1101/2024.07.03.601791:

Target: Kapβ2 Δloop (human) (UniProt Q92973)
Assay: AUC

Sequence of Kapβ2 Δloop (human) (Q92973 9-898, stated change not applied): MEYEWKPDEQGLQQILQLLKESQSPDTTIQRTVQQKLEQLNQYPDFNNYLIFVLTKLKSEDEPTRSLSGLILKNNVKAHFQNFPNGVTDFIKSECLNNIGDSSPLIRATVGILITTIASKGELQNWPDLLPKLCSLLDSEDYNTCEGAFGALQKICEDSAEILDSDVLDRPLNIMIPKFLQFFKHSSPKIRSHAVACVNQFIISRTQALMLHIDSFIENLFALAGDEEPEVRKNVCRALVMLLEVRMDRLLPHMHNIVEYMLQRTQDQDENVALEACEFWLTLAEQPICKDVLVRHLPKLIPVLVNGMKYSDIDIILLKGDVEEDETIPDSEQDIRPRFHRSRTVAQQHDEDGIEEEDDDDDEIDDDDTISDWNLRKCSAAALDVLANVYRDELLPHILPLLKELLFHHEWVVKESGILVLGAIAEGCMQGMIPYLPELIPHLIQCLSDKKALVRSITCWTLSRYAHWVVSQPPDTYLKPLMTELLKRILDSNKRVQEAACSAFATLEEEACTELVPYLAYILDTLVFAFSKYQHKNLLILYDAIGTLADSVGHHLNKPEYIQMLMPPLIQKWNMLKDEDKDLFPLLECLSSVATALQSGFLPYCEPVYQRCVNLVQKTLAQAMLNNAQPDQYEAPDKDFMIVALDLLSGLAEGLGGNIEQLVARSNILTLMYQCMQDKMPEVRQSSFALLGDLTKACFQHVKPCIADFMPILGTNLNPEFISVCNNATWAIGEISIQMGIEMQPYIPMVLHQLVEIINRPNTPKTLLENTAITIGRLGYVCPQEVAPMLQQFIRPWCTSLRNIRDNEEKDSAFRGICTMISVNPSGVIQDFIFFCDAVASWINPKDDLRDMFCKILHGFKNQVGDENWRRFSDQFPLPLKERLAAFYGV

stoichiometry N: 1
B1: maltose-binding protein (MBP)-PR18 (peptide)
chain: PRPRPRPRPRPRPRPRPRPRPRPRPRPRPRPRPRPR
